According to the supplement of paper PMC12042874:
± gives the uncertainty stated by the source.

Assay: amyloid nucleation score (Sup35N fusion, yeast selection) (log enrichment); library NNK1; higher = more nucleation; inactive = no reads after selection
In short: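 After 24 hours of induction with 100 μM copper sulfate, psi-negative yeast expressing peptides of 20 random codons fused to Sup35N were grown for 7 days at 30°C on medium lacking adenine and uracil. Input and output plasmid inserts were sequenced with Illumina, and sequences with under 100 input reads were discarded. Scores for nucleation are the DiMSum log enrichment of output over input reads, centred on the mode score of non-aggregating sequences.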

**Q.** With GCDGATVAGGTNYPDQMYSF as the substance, how does the amyloid nucleation score read?
**A.** 0.786 ± 0.74

**Q.** For GCFIVR, which amyloid nucleation score is on record?
**A.** -0.768 ± 0.98

**Q.** For GCGGTGAFTVQGKRQFIAGR, which amyloid nucleation score is on record?
**A.** -0.031 ± 0.27

**Q.** Which amyloid nucleation score does the source give for GCIGAQRLNCLWSTRRYLVY here?
**A.** 5.42 ± 0.06

**Q.** Which amyloid nucleation score does the source give for GCLRTWQITLVEYNCMTLRI here?
**A.** 0.215 ± 1.2

**Q.** Which amyloid nucleation score does the source give for GCTLLESCVYGKSVRSYHQW here?
**A.** 0.253 ± 0.52

**Q.** For GDLKSILVVLFSSLCVPTLR, which amyloid nucleation score is on record?
**A.** 1.26 ± 0.21

**Q.** With GDNMDEEARWRLPVRFDRAS as the substance, how does the amyloid nucleation score read?
**A.** -0.013 ± 1.2

**Q.** Which amyloid nucleation score does the source give for GEFAYSMVQGHYRIMLMSLK here?
**A.** 1.49 ± 0.68

**Q.** Which amyloid nucleation score does the source give for GEIITWLSGIPLDTVCILRM here?
**A.** -0.229 ± 0.25

**Q.** With GELLKMNVQIRYMGIWVNIL as the substance, how does the amyloid nucleation score read?
**A.** 3.46 ± 0.18

**Q.** Which amyloid nucleation score does the source give for GERTCSYIYGLFTIFYTGLR here?
**A.** -0.048 ± 1.3

**Q.** For GEYCKSLSTE, which amyloid nucleation score is on record?
**A.** 1.01 ± 0.93

**Q.** With GFCFNECFLAGV as the substance, how does the amyloid nucleation score read?
**A.** -0.285 ± 0.59

**Q.** For GFCNYMSFCFHIDASE, which amyloid nucleation score is on record?
**A.** 7.587 ± 0.056

**Q.** With GFDKMMCWYYGLTVIVMDGS as the substance, how does the amyloid nucleation score read?
**A.** -0.076 ± 0.25

**Q.** For GFEWVRVYWWGSYVGKRMGT, which amyloid nucleation score is on record?
**A.** -0.219 ± 0.91

**Q.** Which amyloid nucleation score does the source give for GFFVQNRTWQIH here?
**A.** -0.858 ± 0.45

**Q.** For GFGGSGLTWGSRVCGV, which amyloid nucleation score is on record?
**A.** -1.5 ± 2.4

**Q.** With GFGQAGGPSGESY as the substance, how does the amyloid nucleation score read?
**A.** 0.722 ± 0.75

**Q.** Which amyloid nucleation score does the source give for GFIKPILEQGRYHNESRVLL here?
**A.** 0.243 ± 0.58

**Q.** With GFKPWVVCWTWQAAPKVRSP as the substance, how does the amyloid nucleation score read?
**A.** 0.702 ± 0.73

**Q.** Which amyloid nucleation score does the source give for GFLTVNYWHSEV here?
**A.** 0.065 ± 0.21

**Q.** With GFMERLASIYTFFWGVDSK as the substance, how does the amyloid nucleation score read?
**A.** -0.339 ± 1.2

**Q.** Which amyloid nucleation score does the source give for GFNLFCATESYYFFSLMVMG here?
**A.** -0.13 ± 0.25

**Q.** For GFPTPEPEDNVARSVRWIYS, which amyloid nucleation score is on record?
**A.** -1.47 ± 1

**Q.** Which amyloid nucleation score does the source give for GFPVVAEHVVEFKLV here?
**A.** 0.093 ± 0.7

**Q.** With GFSSVPEGDSINPR as the substance, how does the amyloid nucleation score read?
**A.** -0.09 ± 0.54

**Q.** With GFTGARVSTQHRLRGN as the substance, how does the amyloid nucleation score read?
**A.** -0.245 ± 0.84

**Q.** For GFWSRSGSYQLICIYFGGYG, which amyloid nucleation score is on record?
**A.** -0.296 ± 0.4

**Q.** With GFYRAERYSRFMRAVGRLSN as the substance, how does the amyloid nucleation score read?
**A.** -0.771 ± 0.76

**Q.** With GFYVAETRKVRLCMARWYCG as the substance, how does the amyloid nucleation score read?
**A.** 0.368 ± 0.47

**Q.** Which amyloid nucleation score does the source give for GGELKARNKREGNQSSA here?
**A.** 0.058 ± 0.72

**Q.** Which amyloid nucleation score does the source give for GGFFYMWRYRLCRLGKFGAP here?
**A.** -0.76 ± 0.6

**Q.** For GGHYAVQNPMRVYAYGH, which amyloid nucleation score is on record?
**A.** -0.667 ± 1

**Q.** Which amyloid nucleation score does the source give for GGKESLFRCFADRSCFMYI here?
**A.** -0.724 ± 2.4

**Q.** For GGLKQFTGSRTHGLWSNGQM, which amyloid nucleation score is on record?
**A.** -0.337 ± 0.89

**Q.** Which amyloid nucleation score does the source give for GGLQKMVPNSNLCFLEDP here?
**A.** -0.713 ± 1.7

**Q.** For GGLSNSLSTAVQDW, which amyloid nucleation score is on record?
**A.** -0.995 ± 0.61

**Q.** For GGLVRSKFYFTL, which amyloid nucleation score is on record?
**A.** 0.19 ± 0.25

**Q.** With GGPDTMEMGSFGDARATDAG as the substance, how does the amyloid nucleation score read?
**A.** 1.03 ± 0.93

**Q.** For GGRNF, which amyloid nucleation score is on record?
**A.** -0.696 ± 0.57

**Q.** Which amyloid nucleation score does the source give for GGSFKGYSLIV here?
**A.** 0.678 ± 0.66

**Q.** Which amyloid nucleation score does the source give for GGTGMVGRDANTSFIFWDIV here?
**A.** -0.099 ± 0.36

**Q.** Which amyloid nucleation score does the source give for GGTSIPVVGNQGMIGYVPCD here?
**A.** 0.825 ± 0.43

**Q.** With GGVVCRVKGKNRFPLVSWQF as the substance, how does the amyloid nucleation score read?
**A.** -0.565 ± 0.61

**Q.** For GGWFIINRHHLCYSRNLPPE, which amyloid nucleation score is on record?
**A.** 0.271 ± 0.69

**Q.** For GGYGLYCDHRYVTTTWWHSS, which amyloid nucleation score is on record?
**A.** 0.926 ± 0.66

**Q.** With GHAEIYMWTLGIPSRLFGAI as the substance, how does the amyloid nucleation score read?
**A.** 0.049 ± 0.45

**Q.** Which amyloid nucleation score does the source give for GHGWITMVTDCR here?
**A.** 1.87 ± 0.4

**Q.** With GHIHFWASRDLPTKCHILGL as the substance, how does the amyloid nucleation score read?
**A.** -0.181 ± 0.67

**Q.** For GHLNQCGLNL, which amyloid nucleation score is on record?
**A.** -0.136 ± 0.38

**Q.** With GHLSA as the substance, how does the amyloid nucleation score read?
**A.** inactive

**Q.** Which amyloid nucleation score does the source give for GHNLRLWCCNEADHFFRAQR here?
**A.** -1.16 ± 1.9

**Q.** With GHYKGECYSLMNPV as the substance, how does the amyloid nucleation score read?
**A.** -0.067 ± 1.2

**Q.** For GICLKMYYVSACWESNVDTI, which amyloid nucleation score is on record?
**A.** 1.88 ± 0.18

**Q.** Which amyloid nucleation score does the source give for GIGHELFSNWVMEQLA here?
**A.** -0.23 ± 0.35

**Q.** With GIKAIKCDEPSCAVLGLNSS as the substance, how does the amyloid nucleation score read?
**A.** -0.536 ± 0.5

**Q.** For GIMSRDGKICMVSV, which amyloid nucleation score is on record?
**A.** -0.091 ± 0.81

**Q.** With GIRKKVPIVVCNIFQFECKR as the substance, how does the amyloid nucleation score read?
**A.** 2.51 ± 0.1

**Q.** For GISFP, which amyloid nucleation score is on record?
**A.** -0.737 ± 0.31

**Q.** For GIYGQWTQ, which amyloid nucleation score is on record?
**A.** 0.697 ± 0.85

**Q.** With GKIRSKKGQSLGQNT as the substance, how does the amyloid nucleation score read?
**A.** -1.16 ± 1.2

**Q.** Which amyloid nucleation score does the source give for GKQGRIQDSVYDWCCCNLSG here?
**A.** 0.255 ± 1.2

**Q.** With GKRDRMLQQIGWKLTYRCWN as the substance, how does the amyloid nucleation score read?
**A.** 0.522 ± 0.66

**Q.** With GKSILVVSFARKLF as the substance, how does the amyloid nucleation score read?
**A.** -0.18 ± 1.2

**Q.** Which amyloid nucleation score does the source give for GKSKAAQFN here?
**A.** -0.318 ± 0.31

**Q.** For GKSWLSMKNQISINRRSMIP, which amyloid nucleation score is on record?
**A.** -0.449 ± 0.5

**Q.** For GKVAPFRDSGNIIADGNIHE, which amyloid nucleation score is on record?
**A.** -0.219 ± 0.47

**Q.** Which amyloid nucleation score does the source give for GKVFVCSIVYSIRMSITSRI here?
**A.** inactive

**Q.** For GKWPRRSW, which amyloid nucleation score is on record?
**A.** 0.376 ± 1.1

**Q.** For GLCFDARLLEL, which amyloid nucleation score is on record?
**A.** -1.87 ± 2.7

**Q.** For GLCVMSYTVDSLLCKGIFR, which amyloid nucleation score is on record?
**A.** inactive

**Q.** Which amyloid nucleation score does the source give for GLDLMSVRWGKTMAPSSLWW here?
**A.** 4.63 ± 0.12

**Q.** With GLDRTHYPFALNGCLLSTVS as the substance, how does the amyloid nucleation score read?
**A.** 0.676 ± 0.55

**Q.** Which amyloid nucleation score does the source give for GLELLAGVIHSWVRGSGALW here?
**A.** -0.868 ± 0.84

**Q.** With GLEWGGVKTQMKSWTMRMGG as the substance, how does the amyloid nucleation score read?
**A.** -1.4 ± 1.6

**Q.** Which amyloid nucleation score does the source give for GLGCSSLCQLMN here?
**A.** 0.983 ± 0.56

**Q.** With GLGLHWSEASFRLRMDRRFA as the substance, how does the amyloid nucleation score read?
**A.** 3.79 ± 0.069

**Q.** Which amyloid nucleation score does the source give for GLGMSRPYGSAPTRPDQNKI here?
**A.** 0.275 ± 1.1

**Q.** With GLGRSLKGHIMTAMRCMQGV as the substance, how does the amyloid nucleation score read?
**A.** -0.691 ± 0.44

**Q.** Which amyloid nucleation score does the source give for GLILNNLSWAHWPPGGSMWL here?
**A.** 2.72 ± 0.17

**Q.** Which amyloid nucleation score does the source give for GLKNFWM here?
**A.** -1.55 ± 1.9

**Q.** For GLLIVGRRYLGGADVDIHEE, which amyloid nucleation score is on record?
**A.** 0.713 ± 0.68

**Q.** For GLNLRCSNTREGKVWNRTW, which amyloid nucleation score is on record?
**A.** -0.37 ± 0.47
